This note sets out measurements from publication PMC5524822.

The target of this assay is HIV-1 Env of virus AT1 with the I371V mutation (HIV-1).

Turning to VRC01 (antibody), the IC50 of neutralisation of the virus in TZM-bl cells (luciferase reporter) was determined as 0.0724 µg/mL.
